What was measured:
[1] = test system: MS2 coat protein; test: apparent KD of MS2 coat protein; higher = weaker reporter binding; details: Eterna round: R107
Procedure: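 RNA-MaP round R107: designed RNA switches with theophylline, tryptophan, arginine or FMN aptamers are transcribed on-chip within common flanks. They are titrated with SNAP-549-labelled MS2 coat protein in RNA-MaP buffer (100 mM Tris pH 7.5, 80 mM KCl, 4 mM MgCl2), without ligand or with the indicated ligand. Median apparent KD per design.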

[2] = test system: K4 kissing-loop RNA reporter; test: apparent KD of K4 kissing-loop reporter; higher = weaker reporter binding; details: Eterna round: R107;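 also: bound reporter read as fluorescence of individual clusters on recovered sequencing chips by microscopy, with normalized cluster intensities fitted with a binding model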
Procedure: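 RNA-MaP round R107: designed RNA switches with theophylline, tryptophan, arginine or FMN aptamers are transcribed on-chip within common flanks. They are titrated with a labelled K4 kissing-loop RNA reporter in RNA-MaP buffer (100 mM Tris pH 7.5, 80 mM KCl, 4 mM MgCl2), without ligand or with the indicated ligand. Median apparent KD per design.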

[3] = input ligand: theophylline 20 uM
[4] = input ligand: theophylline 2 mM
[5] = input ligand: tryptophan 2.4 mM

Row | Sequence | apparent KD of MS2 coat protein ([1]; input ligand: arginine 13.2 mM) [nM] | apparent KD of MS2 coat protein ([1]; input ligand: none) [nM] | apparent KD of MS2 coat protein [1, 3] [nM] | apparent KD of MS2 coat protein [1, 4] [nM] | apparent KD of MS2 coat protein [1, 5] [nM] | apparent KD of K4 kissing-loop reporter ([2]; input ligand: FMN 200 uM) [nM] | apparent KD of K4 kissing-loop reporter ([2]; input ligand: arginine 13.2 mM) [nM] | apparent KD of K4 kissing-loop reporter ([2]; input ligand: none) [nM] | apparent KD of K4 kissing-loop reporter [2, 3] [nM] | apparent KD of K4 kissing-loop reporter [2, 5] [nM]
1 | AAAACACAUGAGGAUCACCCAUGUCAUGAUACCAGUCAACAUGAGGACCCUUGGCAGCAUAAAAUGGGUAACAUGAGGAUCACCC [AstrosEXyTheA#1] | 129 | 29.4 | 93.8 | 102 | 50.5 | – | – | – | – | –
2 | AAAACACAUGAGGAUCACCCAUGUCGUGAUACCAGUCAACAUGAGGACCCUUGGCAGCAUAAAAUGGGUAACAUGAGGAUCACCC [AstrosEXyTheA#5] | 65.3 | – | 118 | – | 90.9 | – | – | – | – | –
3 | AAAACAUGAGGAUCACCACAUGACAUGAGGCGAGGACCGGUACGGCCGCCACUCGACAUACAUGAGGAUCACCCAUGUUUGUUGU [Exclusion Tryptophan A 4] | 40.7 | – | 274 | 460 | – | – | – | – | – | –
4 | AAAACAUGAGGAUCACCCAUGUGGUGAGAAGGAGCGUCGGAAAUGACAGGUAGGUCGCUUAUCCGUAAGUAUUAGUGUUAGUACA [SSArg A #1] | 140 | 280 | 290 | 388 | 335 | – | – | – | – | –
5 | AAAAGAGGUGGAAGGAGCGGGAGACAUGAGGAUCACCCAUGUGAUAUGACAAGAGGAUCAGCCCAGGUAGGUCGCCAUGUCGAAA [pbbbmullin] | 17.9 | 71.1 | 53.1 | 103 | 50 | – | – | – | – | –
6 | UGUGUUGUUUUGAUGUUUGGUGUUGCUUGGCAGGAUAUCGUAGAGGCGAGAAGGGCUUGUGAGCGGUAUGAGUGAUGUUUGUAGG [zwwrmullin] | – | – | – | – | – | 485 | 282 | 455 | 416 | 336
7 | UGUUCAAGUGAUGUUUGAGACUAGGUGGAUACCAGCGCAUGCAGUCGCCCUUGGCAGCCAGAAACCAACGCCGCGCGCUUCGGCU [theeternabot_sameState_KL_Theo_A_39] | – | – | – | – | – | 342 | 325 | 464 | 350 | 334
8 | UGUUUUUACUGAAGGAGCGGCAAUUGAUACGUAGAUAUAGUGAUGUUAUAUAAGAUAGAGAGCCAGGUAGGUCGCAGAAUGAAUC [ExArgB.aD] | – | – | – | – | – | 209 | 188 | 190 | 242 | 156
9 | UGUUUUUACUGAAGGAGCGGCAAUUGAUACGUAGAUAUAGUGAUGUUAUAUAAGAUAGAGAGCCAGGUAGGUCGCAGAGUUUUUC [ExArgB.Z] | – | – | – | – | – | 167 | 167 | 161 | 179 | 154
10 | UUACCAAGUGAUGUUUGGAAAUAUCCUAGGCAGGAUAUGCGGAAACGCAGAAGGGCCACCUUAUAGUGAAGGAAACUUCGCUAUU [Ex FMN A 2] | – | – | – | – | – | 163 | 124 | 140 | 141 | 142
